Substrate: NCC(=O)CCC(=O)O
Experiment: PbgS activity assay in lysate of overexpressing cells, Michaelis-Menten
Format: biochemical, Acinetobacter baumannii
Settings: native wt lysate included as control to subtract basal activity

B1: PbgS(wt) (Acinetobacter baumannii ATCC 19606 = CIP 70.34 = JCM 6841) (protein)
chain: MGLQYSSRLTVMEYPPTYPSVIPNIEIVMTYTFNRPAFPATRMRRIRKNDQLRAMVSETQLTTNHLIYPVFVLPGQNQTQDIPSMPNIQRLSADLLLKKAERLLELGVSKLALFPVTPQEDKSLTAEAAWREDGLVQTTCRLLKKELPEMVLITDGALDPYTTHGQDGIIDETGYVLNDETVECLIKQALSHAEAGAEVIAPSDMMDGRIGAIRQALEANGHIYTNIMAYSAKYASSFYGPFRDAVGSASNLKGGNKYNYQMDFANRAEALHEIALDIQEGADMVIVKPGMPYLDVVREVKDTFGIPTFIYQVSGEYAMLAGAIQNGWLSDSVILESLMCCRRAGADGIWTYFAETAAEKLKEMN
- Km: 153 µM

From paper PMC8006170
